The results in this text go back to patent publication CN109721655A (ZONHON BIOPHARMA INST INC, dated 2019).

The target in test [1] is T1, 重组人肌红蛋白 (recombinant human myoglobin, expressed in E. coli, made in-house) (human, UniProt P02144 2-154).
T1 construct: also called 人MYO; 重组人MYO
T1 sequence (looked up): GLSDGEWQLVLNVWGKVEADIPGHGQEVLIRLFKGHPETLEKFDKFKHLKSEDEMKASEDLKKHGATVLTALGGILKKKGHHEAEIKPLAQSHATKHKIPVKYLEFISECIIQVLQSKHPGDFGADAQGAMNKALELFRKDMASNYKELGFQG
Briefly: indirect ELISA, hybridoma supernatant on plates coated with recombinant human MYO at 1 μg/mL, HRP goat anti-mouse IgG.

Test [2] concerns the target T1, 重组人肌红蛋白 (recombinant human myoglobin, …). In words: Western blot of recombinant MYO with HRP-labelled M08 (1:1000).
For test [3] the target is unchanged. Briefly: Western blot of recombinant MYO with HRP-labelled M26 (1:1000).

B1: 杂交瘤细胞株M26的抗体 (mouse monoclonal antibody from hybridoma M26) (antibody, V domains shown)
VH: QVQLQQSGDDLVKPGASVKLSCKASGYTFTSYWINWIKQRPGQGLEWIGRIAPEGDSTYYNEMFKGKATLTVDTSSSTAYIQLSSLSSEDSAVYFCAREVRNAMDYWGQGTSVTVSS
VL: DIQMNQSPSSLSASLGDTITITCHASQNIHVWLSWYLQKPGNITKLLIYEASNLHTGVPSRFSGSGSGTGFTLTISSLQPEDIATYYCQQGQRYPLTFGGGTKLEIK
notes: Tested as hybridoma culture supernatant; Mouse IgG, detected with HRP goat anti-mouse IgG
Regarding B1, the binding result in test [1] was “binds”.

B2: 杂交瘤细胞株M08的抗体 (mouse monoclonal antibody from hybridoma M08) (antibody, V domains shown)
VH: QVQLQQSGAELAKPGASVKMSCKASGYTFTSYWMHWVKQRPGQGLEWIGYIKPNTDYTEYNQKFKDKATLTADKSSSTAYMQLSSLTSEDSAVYYCTRIRGYALDYWGQGTSVTVSS
VL: DIVMTQSPSSLTVTAGEKVTMICKSSQSLLNSGNQKNYLTWYQQKPGQPPKLLIYWASTRESGVPDRFTGSGSGTDFTLTISSVQAEDLAVYYCQNDYNFPLTFGAGTKLELK
notes: as for B1
In the case of B2, the binding result in test [1] was “binds”.

B3: 单链抗体M08 (anti-human myoglobin scFv M08, His-tagged, expressed in E. coli) (scFv)
scFv: QVQLQQSGAELAKPGASVKMSCKASGYTFTSYWMHWVKQRPGQGLEWIGYIKPNTDYTEYNQKFKDKATLTADKSSSTAYMQLSSLTSEDSAVYYCTRIRGYALDYWGQGTSVTVSSGGGGSGGGGSGGGGSDIVMTQSPSSLTVTAGEKVTMICKSSQSLLNSGNQKNYLTWYQQKPGQPPKLLIYWASTRESGVPDRFTGSGSGTDFTLTISSVQAEDLAVYYCQNDYNFPLTFGAGTKLELK
notes: Purified on HisTrap HP; HRP-labelled for the Western blot; Coupled to time-resolved fluorescent microspheres in the test card; also called M08抗体; M08-scFv; not shown: histidine tag added downstream of the scFv gene
Consider B3, for which the binding result in test [2] was “binds”.

B4: 单链抗体M26 (anti-human myoglobin scFv M26, His-tagged, expressed in E. coli) (scFv)
scFv: QVQLQQSGDDLVKPGASVKLSCKASGYTFTSYWINWIKQRPGQGLEWIGRIAPEGDSTYYNEMFKGKATLTVDTSSSTAYIQLSSLSSEDSAVYFCAREVRNAMDYWGQGTSVTVSSGGGGSGGGGSGGGGSDIQMNQSPSSLSASLGDTITITCHASQNIHVWLSWYLQKPGNITKLLIYEASNLHTGVPSRFSGSGSGTGFTLTISSLQPEDIATYYCQQGQRYPLTFGGGTKLEIK
notes: Purified on HisTrap HP; HRP-labelled for the Western blot; Coated on the T line of the nitrocellulose membrane in the test card; also called M26抗体; M26-scFv; not shown: histidine tag added downstream of the scFv gene
On to B4, for which, in test [3], the binding result is recorded as “binds”.
